Laboratory results as given in patent US6191256A, “Recombinant factor VIII binding peptides” (Bayer Corporation, priority 1998, dated 2001).

Columns and labels:
[1] = target: T1, rFVIII (Homo sapiens, UniProt P00451); test: column format binding assay, rFVIII mass per fraction by sandwich capture ELISA for the light chain; conditions: for 0.5M CaCl2 ng / 0.5M CaCl2 % total / 2% acetic acid % total / 2% acetic acid ng / Flow through % total / Total ng / Flow through ng: Table 5; for Flow through ng: 10,000 ng rFVIII in 1:10 PPF injected, 5° C.; for ELISA results % total: Table 9, 0.5M CaCl2 fraction
T1 sequence (P00451 20-2351): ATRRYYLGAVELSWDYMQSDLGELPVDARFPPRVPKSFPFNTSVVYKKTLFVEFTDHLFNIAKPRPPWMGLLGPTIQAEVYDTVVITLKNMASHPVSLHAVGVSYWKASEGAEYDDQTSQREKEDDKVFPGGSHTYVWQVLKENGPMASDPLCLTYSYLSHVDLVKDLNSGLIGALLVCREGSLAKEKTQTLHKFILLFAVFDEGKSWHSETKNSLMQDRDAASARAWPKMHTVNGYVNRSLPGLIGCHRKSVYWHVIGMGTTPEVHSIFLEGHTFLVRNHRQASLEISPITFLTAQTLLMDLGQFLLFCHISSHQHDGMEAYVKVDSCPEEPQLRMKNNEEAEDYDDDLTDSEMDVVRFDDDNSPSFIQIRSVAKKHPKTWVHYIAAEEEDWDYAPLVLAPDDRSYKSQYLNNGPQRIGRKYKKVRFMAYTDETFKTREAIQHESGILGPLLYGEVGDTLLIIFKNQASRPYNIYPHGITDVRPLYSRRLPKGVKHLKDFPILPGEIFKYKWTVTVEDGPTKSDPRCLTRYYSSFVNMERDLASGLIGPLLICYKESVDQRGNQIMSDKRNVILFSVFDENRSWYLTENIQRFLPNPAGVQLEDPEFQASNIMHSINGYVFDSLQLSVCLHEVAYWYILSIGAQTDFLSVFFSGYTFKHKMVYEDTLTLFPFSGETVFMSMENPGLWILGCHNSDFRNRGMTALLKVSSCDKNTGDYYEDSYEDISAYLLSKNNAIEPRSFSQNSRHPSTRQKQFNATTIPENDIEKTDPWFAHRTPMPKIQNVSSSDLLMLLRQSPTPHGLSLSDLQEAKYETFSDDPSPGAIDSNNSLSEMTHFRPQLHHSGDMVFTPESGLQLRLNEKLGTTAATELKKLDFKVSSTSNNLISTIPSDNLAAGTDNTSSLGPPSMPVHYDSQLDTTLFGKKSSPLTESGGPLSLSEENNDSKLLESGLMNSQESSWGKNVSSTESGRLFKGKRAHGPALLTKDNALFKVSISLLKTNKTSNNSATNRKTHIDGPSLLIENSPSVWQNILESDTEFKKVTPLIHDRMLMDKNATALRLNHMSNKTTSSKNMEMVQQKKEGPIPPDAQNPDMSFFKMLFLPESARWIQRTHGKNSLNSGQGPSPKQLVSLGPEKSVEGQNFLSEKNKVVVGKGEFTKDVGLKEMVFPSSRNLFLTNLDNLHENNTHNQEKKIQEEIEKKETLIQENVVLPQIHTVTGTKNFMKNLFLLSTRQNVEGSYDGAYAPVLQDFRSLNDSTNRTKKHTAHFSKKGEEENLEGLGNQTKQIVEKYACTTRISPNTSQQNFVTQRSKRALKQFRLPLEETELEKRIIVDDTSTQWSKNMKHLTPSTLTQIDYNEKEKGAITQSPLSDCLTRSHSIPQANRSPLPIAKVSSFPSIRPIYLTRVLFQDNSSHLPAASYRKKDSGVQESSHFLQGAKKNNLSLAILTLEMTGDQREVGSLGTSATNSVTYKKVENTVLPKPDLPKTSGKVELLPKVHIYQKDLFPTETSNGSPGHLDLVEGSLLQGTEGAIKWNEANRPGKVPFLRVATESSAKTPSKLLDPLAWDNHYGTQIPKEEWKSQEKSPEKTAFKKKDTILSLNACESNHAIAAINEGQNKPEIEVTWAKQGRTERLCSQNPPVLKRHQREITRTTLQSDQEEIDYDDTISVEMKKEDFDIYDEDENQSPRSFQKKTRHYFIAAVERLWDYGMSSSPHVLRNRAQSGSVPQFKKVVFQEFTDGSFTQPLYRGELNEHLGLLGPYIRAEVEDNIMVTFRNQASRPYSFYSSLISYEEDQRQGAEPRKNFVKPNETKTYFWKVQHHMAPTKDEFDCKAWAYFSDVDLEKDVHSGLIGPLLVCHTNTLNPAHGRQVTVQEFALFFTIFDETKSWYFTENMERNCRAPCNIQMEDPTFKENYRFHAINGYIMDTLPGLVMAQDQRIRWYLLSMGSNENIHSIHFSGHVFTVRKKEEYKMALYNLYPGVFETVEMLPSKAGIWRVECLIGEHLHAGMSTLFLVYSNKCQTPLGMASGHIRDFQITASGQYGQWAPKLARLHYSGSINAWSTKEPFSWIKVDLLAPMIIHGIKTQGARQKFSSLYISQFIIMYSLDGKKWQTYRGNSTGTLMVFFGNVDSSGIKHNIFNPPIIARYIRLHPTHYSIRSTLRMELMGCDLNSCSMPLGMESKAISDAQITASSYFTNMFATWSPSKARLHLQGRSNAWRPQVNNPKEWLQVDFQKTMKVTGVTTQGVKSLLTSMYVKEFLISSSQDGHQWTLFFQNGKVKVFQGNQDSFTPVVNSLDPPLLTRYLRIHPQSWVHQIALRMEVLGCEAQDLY
T1 sequence (P00451 1668-2351 limits assumed): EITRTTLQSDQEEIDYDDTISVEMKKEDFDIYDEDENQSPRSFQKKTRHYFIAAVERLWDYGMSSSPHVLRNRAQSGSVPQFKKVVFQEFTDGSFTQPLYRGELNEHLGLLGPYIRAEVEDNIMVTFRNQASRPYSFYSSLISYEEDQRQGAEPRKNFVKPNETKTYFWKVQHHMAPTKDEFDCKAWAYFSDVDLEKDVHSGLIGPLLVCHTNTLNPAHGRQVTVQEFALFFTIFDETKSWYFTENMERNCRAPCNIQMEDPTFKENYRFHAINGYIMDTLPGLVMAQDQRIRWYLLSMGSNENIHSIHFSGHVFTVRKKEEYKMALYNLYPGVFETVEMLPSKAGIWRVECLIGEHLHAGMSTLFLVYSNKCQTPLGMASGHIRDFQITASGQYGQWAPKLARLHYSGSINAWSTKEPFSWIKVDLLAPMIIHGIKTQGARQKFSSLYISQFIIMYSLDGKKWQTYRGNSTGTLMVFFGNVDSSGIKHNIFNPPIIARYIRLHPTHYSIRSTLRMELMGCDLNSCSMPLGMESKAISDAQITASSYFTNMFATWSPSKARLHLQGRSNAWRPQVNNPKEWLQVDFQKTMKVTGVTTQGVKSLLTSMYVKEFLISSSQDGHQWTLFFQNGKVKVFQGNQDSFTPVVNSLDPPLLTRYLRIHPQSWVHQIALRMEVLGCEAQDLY
Procedure: (§1) Immunoassay on rFVIII using a sandwich capture ELISA for the light chain and activity assay using a chromogenic substrate (COATEST Factor VIII kit from diaPharma, Franklin, Ohio) were performed on a BIOMEK® automated liquid handling system from Beckman Instruments (Brea, Calif.). The monoclonal antibody for rFVIII light chain (known as C7F7), the ELISA assay standard (lot A70K019), and the control for the activity assay (lot A70A001 @ 140 IU/mL) were from the Bayer Corporation (Berkeley, Calif.). The standard for the activity assay was at 11.2 IU/mL (Bayer, Clayton, N.C.), calibrated against the MEGA 1 standard, which is a working standard used by American manufacturers for measuring factor VIII activity (21).
(§2) Additional confirmatory binding assay and performance of the discovered binding peptides in terms of total rFVIII and activity recovery was performed in a column chromatographic format on a microbore HPLC. The resins were packed into 0.4×5 cm columns (Thomson, Springfield, Va.) and tested on the MICHROM HPLC system (Michrom BioResources, Auburn, Calif.). The elution program for the trials utilized the following method. The column was pre-equilibrated with equilibration buffer (as above). A 1 mL aliquot of 1:10 PPF followed by 1 mL of rFVIII (10,000 ng) in 1:10 PPF were injected and allowed sufficient time to flow through the column using equilibration buffer. The column was then washed with step elutions of 0.5 M and 1.0 M CaCl2 in equilibration buffer. The column was exposed to equilibration buffer. Remaining protein was eluted with 2% by volume glacial acetic acid in water. Columns were kept at 5° C. during the chromatographic runs. For each 1 mL injection (equilibration buffer, 1:10 PPF and 10,000 ng rFVIII in 1:10 PPF), the chromatographic cycle was run for 45 minutes (injection, flow through, 0.5 M CaCl2, 1.0 M CaCl2, equilibration buffer, 2% acetic acid, equilibration buffer).
(§3) A Gilson FC204 fraction collector at the HPLC outlet collected individual eluates for further analysis. Each collection tube had 100 μL hSA added to it to stabilize the rFVIII. Fractions collected from the 2% acetic acid eluates were neutralized with 2 M Tris, pH 10.5 to bring the pH to neutrality. The fractions were analyzed for total protein by the integration of the absorbance at 280 nm, for rFVIII by immunoassay (sandwich capture ELISA), and for rFVIII activity by a chromogenic substrate assay.
Tables 5 and 6 present the results from the additional confirmatory binding assays using the column format. The chromatography method was run by injecting the samples at a flow rate of 865 μL/min (413 cm/hr). In order to provide a 10 minute residence time of sample in the column the flow was decreased to 17 μL/min (10 cm/hr) upon injection.
Following the incubation, the flow was set at 865 μL/min (413 cm/hr) for the step clutions of 0.5 M CaCl2, 1.0 M CaCl2, and 2% acetic acid. Results are expressed in terms of the total mass of rFVIII in each fraction, as determined by the sandwich capture ELISA assay for the rFVIII light chain. […] A control using a non-binding peptide sequence (IGF) is also shown for comparison--in this case, 95% of the rFVIII loaded to the column was collected in the flow through fraction. Additional controls with no

[2] = target: T1, rFVIII; test: rFVIII activity recovery from peptide columns by chromogenic substrate assay (COATEST); assay type: biochemical; conditions: for 0.5M CaCl2 IU / 2% acetic acid % total / 2% acetic acid IU / Flow through % total / Total IU / 0.5M CaCl2 % total / Flow through IU: Table 7; for 0.5M CaCl2 % total: activity recovery; for Flow through IU: rFVIII activity in fraction; for Activity results % total: Table 9, 0.5M CaCl2 fraction
Procedure: as §1, §2, §3
Tables 7 and 8 list the sequences for which activity recovery was determined by a chromogenic substrate assay (COASTEST kit, diaPharma, Franklin, Ohio). Chromatographc conditions are the same as described above for the results from Tables 5 and 6. It can be

[3] = target: T1, rFVIII; test: confirmatory binding assay in filtration plate format using 14C-rFVIII; conditions: for Total dpm / 0.5M CaCl2 % total / 2% acetic acid % total / 2% acetic acid dpm / 0.5M CaCl2 dpm / beads % total / beads dpm: Table 3; for Total dpm / beads % total / beads dpm: 14C-rFVIII 20 nM; for 0.5M CaCl2 % total / 2% acetic acid % total / 2% acetic acid dpm / 0.5M CaCl2 dpm: 14C-rFVIII 20 nM in PPF, 5 mg beads; for 0.5M CaCl2 dpm: 3.0 × 10^15 DPM/mole, 5° C.; for beads % total / beads dpm: remaining on beads after washes
Procedure: Confirmatory binding assays were performed in a filtration plate format using individual peptide sequences synthesized directly onto the TOYOPEARL AF amino 650 M resin, at a final substitution density of 0.1 mmole/g resin. A slurry of each individual peptide sequence was prepared using deionized water. A 100 μL volume of beads (corresponding to 5 mg) was loaded into each well of the filtration plate (MULTISCREEN Assay System, Millipore, Bedford, Mass.), in triplicate for each peptide sequence. Beads were washed with 20% ethanol and incubated overnight with equilibration buffer (20 mM imidazole, 10 mM
CaCl2, 0.105 M NaCl, pH 6.9). A 100 μL aliquot of ^14 C-rFVIII diluted in neat PPF to a final concentration of 20-30 nM was loaded into each well and incubated for 1 hour at 5° C. Filtrate (unbound ^14 C-rFVIII) was collected into a microtiter plate and transferred to liquid scintillation vials for dpm counting. Beads were washed sequentially with: 100 μL of equilibration buffer for 15 minutes, 200 μL of 0.5 M CaCl2 (in equilibration buffer), 200 μL of 1.0 M CaCl2 (in equilibration buffer), and 200 uL of 2% by volume glacial acetic acid in water, for 1 hour each at 5° C. Scintillation counting on the unbound ^14 C-rFVIII (plus equilibration buffer wash), salt and acid washes, as well as on the beads was then performed and the overall mass balance calculated.
Beads presenting the appropriate peptide sequence on the surface were placed in the filtration plate wells and incubated sequentially with equilibration buffer, ^14 C-rFVIII in PPF, equilibration buffer, 0.5 M CaCl2 wash, 1.0 M CaCl2 wash and 2% acetic acid wash. After each incubation, filtrate was collected in microtiter plates, and dpm counted on each
In Table 3, the ^14 C-rFVIII was loaded at 20 nM (in PPF) and the radiolabeling yield was at 3.0×10^15 dpm/mole. In Table 4, the ^14 C-rFVIII was loaded at 30 nM (in PPF) and the radiolabeling yield was at 5.0×10^15 dpm/mole.

Substance	0.5M CaCl2 ng [1]	0.5M CaCl2 % total [1]	2% acetic acid % total [1]	2% acetic acid ng [1]	Flow through % total [1]	Total ng [1]	Flow through ng [1]	ELISA results % total [1]	0.5M CaCl2 IU [2]	2% acetic acid % total [2]	2% acetic acid IU [2]	Flow through % total [2]	Total IU [2]	Total dpm [3]	0.5M CaCl2 % total [3]	2% acetic acid % total [3]	2% acetic acid dpm [3]	0.5M CaCl2 dpm [3]	beads % total [3]	beads dpm [3]	further results
1 (KPNPLA) [compound 1]	4961 ng	88%	1%	61 ng	10%	5651 ng	583 ng	88%	32.8 IU	2%	0.58 IU	0%	36.5 IU	3162 dpm	85%	12%	368 dpm	2694 dpm	3%	99 dpm	0.5M CaCl2 % total [2]: 90%; Flow through IU [2]: 0.03 IU; Activity results % total [2]: 90%
2 (RNPPNN) [compound 2]	5745 ng	92%	0%	31 ng	7%	6245 ng	447 ng	92%	51.6 IU	1%	0.5 IU	1%	54.3 IU	2767 dpm	86%	12%	322 dpm	2366 dpm	3%	79 dpm	0.5M CaCl2 % total [2]: 95%; Flow through IU [2]: 0.4 IU; Activity results % total [2]: 95%
3 (YVQGLW) [compound 3]														2020 dpm	74%	19%	379 dpm	1502 dpm	7%	140 dpm	
4 (FRPHWA) [compound 4]	5510 ng	90%	3%	160 ng	4%	6123 ng	225 ng	90%						3744 dpm	78%	17%	631 dpm	2905 dpm	6%	209 dpm	
5 (LNWKYG) [compound 5]	5530 ng	97%	2%	125 ng	0%	5680 ng	25 ng	97%	36.3 IU	3%	1.2 IU	0%	37.8 IU	4091 dpm	86%	10%	430 dpm	3519 dpm	3%	143 dpm	0.5M CaCl2 % total [2]: 96%; Flow through IU [2]: 0.0 IU; Activity results % total [2]: 96%
8 (RPRW) [compound 8]	5449 ng	97%	0%	10 ng	2%	5623 ng	122 ng	97%						4098 dpm	86%	9%	377 dpm	3543 dpm	4%	178 dpm	

Second part, led by results:

0.5M CaCl2 ng [1]	0.5M CaCl2 % total [1]	2% acetic acid % total [1]	2% acetic acid ng [1]	Flow through % total [1]	Total ng [1]	Flow through ng [1]	ELISA results % total [1]	0.5M CaCl2 IU [2]	2% acetic acid % total [2]	2% acetic acid IU [2]	Flow through % total [2]	Total IU [2]	Total dpm [3]	0.5M CaCl2 % total [3]	2% acetic acid % total [3]	2% acetic acid dpm [3]	0.5M CaCl2 dpm [3]	beads % total [3]	beads dpm [3]	Substance	further results
338 ng	9%	71%	2550 ng	2%	3615 ng	56 ng							2897 dpm	21%	45%	1302 dpm	608 dpm	34%	986 dpm	16 (WRRHRY) [compound 16]	
1622 ng	37%	54%	2336 ng	3%	4348 ng	127 ng							3009 dpm	17%	72%	2156 dpm	498 dpm	12%	355 dpm	17 (FYRFWN) [compound 17]	
2362 ng	56%	18%	760 ng	0%	4200 ng	8 ng							2608 dpm	25%	67%	1752 dpm	651 dpm	8%	205 dpm	18 (WLWSHN) [compound 18]	
201 ng	4%	0%	10 ng	95%	4962 ng	4719 ng							274 dpm	80%	15%	41 dpm	219 dpm	5%	14 dpm	IGF [reference compound]	binding of rFVIII in words ([3]; plate format): non binder
